The test deals with FLAG-tagged full-length senataxin (SETX) (human) (UniProt Q7Z333). The test can be described thus: co-IP; SETX immunoprecipitated, the IP'd material treated with or without RNase A; bands measured by densitometry; IgG only IP as negative control.
Sequence of UniProt Q7Z333 (Q7Z333 whole entry): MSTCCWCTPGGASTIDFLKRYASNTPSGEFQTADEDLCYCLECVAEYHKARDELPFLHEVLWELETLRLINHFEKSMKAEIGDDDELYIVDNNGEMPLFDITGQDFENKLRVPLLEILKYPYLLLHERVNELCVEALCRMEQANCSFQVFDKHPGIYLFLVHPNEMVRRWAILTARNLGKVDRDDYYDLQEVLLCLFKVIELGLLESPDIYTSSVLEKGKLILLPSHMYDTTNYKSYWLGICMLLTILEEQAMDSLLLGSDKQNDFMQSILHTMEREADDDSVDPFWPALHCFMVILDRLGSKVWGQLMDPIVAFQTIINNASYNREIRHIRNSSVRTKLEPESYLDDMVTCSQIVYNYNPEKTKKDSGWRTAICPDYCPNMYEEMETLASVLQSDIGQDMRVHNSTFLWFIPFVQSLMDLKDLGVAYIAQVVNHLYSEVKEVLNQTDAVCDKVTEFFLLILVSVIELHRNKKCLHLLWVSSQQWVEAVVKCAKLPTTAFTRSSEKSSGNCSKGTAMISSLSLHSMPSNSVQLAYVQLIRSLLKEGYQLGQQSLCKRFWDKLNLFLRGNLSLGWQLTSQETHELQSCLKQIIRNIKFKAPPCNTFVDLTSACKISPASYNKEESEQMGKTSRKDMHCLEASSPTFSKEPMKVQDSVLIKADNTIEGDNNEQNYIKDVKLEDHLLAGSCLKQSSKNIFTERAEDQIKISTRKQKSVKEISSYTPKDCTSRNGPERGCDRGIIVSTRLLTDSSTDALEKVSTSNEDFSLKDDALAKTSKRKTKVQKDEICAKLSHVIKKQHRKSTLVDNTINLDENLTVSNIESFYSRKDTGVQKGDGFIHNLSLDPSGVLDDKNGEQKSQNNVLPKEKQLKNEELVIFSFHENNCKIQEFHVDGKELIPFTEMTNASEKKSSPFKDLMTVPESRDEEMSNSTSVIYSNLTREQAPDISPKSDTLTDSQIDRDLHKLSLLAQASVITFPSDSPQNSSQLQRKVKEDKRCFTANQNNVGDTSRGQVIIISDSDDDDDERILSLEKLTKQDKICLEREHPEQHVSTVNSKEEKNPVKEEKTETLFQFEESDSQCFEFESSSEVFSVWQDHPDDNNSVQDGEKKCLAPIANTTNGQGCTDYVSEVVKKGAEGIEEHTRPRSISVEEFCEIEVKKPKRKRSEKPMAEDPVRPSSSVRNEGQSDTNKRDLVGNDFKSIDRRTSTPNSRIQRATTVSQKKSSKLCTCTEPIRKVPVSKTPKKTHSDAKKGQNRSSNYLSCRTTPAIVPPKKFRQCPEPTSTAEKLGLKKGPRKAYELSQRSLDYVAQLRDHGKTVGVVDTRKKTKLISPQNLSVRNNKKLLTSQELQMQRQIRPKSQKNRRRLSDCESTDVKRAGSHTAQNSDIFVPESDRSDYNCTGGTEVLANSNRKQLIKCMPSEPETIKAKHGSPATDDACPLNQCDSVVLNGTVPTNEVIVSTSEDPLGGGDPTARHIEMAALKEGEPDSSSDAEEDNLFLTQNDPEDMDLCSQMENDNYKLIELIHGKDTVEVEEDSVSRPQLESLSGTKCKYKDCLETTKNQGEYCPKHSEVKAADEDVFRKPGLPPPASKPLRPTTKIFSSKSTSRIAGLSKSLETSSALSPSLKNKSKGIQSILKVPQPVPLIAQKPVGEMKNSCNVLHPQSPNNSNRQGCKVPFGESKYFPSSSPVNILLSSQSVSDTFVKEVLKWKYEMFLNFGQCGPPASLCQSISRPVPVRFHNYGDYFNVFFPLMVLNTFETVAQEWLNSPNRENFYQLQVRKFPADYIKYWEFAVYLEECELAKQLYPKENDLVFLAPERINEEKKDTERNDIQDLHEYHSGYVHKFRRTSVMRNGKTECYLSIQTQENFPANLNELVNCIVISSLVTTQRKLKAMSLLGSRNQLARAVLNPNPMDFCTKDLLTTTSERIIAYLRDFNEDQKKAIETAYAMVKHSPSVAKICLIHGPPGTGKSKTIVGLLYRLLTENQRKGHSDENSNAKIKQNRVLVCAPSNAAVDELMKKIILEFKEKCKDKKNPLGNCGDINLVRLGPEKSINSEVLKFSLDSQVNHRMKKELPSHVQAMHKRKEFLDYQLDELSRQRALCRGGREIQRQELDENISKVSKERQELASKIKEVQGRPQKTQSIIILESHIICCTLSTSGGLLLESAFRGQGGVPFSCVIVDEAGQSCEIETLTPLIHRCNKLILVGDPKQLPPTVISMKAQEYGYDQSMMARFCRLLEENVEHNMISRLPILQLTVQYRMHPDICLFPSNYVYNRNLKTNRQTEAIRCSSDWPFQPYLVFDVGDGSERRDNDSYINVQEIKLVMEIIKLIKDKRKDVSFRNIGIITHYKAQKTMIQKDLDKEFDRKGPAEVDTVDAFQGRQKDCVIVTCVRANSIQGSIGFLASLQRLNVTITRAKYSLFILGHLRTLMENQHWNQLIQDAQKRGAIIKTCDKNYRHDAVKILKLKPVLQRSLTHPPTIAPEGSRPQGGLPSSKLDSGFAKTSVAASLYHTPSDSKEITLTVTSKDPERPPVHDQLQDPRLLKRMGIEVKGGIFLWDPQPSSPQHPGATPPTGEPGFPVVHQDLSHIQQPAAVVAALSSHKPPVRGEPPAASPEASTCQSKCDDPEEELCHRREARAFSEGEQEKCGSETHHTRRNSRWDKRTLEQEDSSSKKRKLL

The substance GFP-GR30 (peptide) showed a percent reduction of the co-IP band upon RNase A treatment of 32%.

(Values after publication PMC10580588.)
